How the values were obtained:
[1] = molecular target: T1, CsHMGΔNΔC (Citrus sinensis, UniProt G9I829 56-125); experiment: EMSA; details: protein: recombinant; label: 5' 32P
[2] = molecular target: CsHMGΔC (Citrus sinensis, UniProt G9I829 1-125); experiment: EMSA; details: protein: recombinant; label: 5' 32P
[3] = molecular target: CsHMGΔN (Citrus sinensis, UniProt G9I829 56-165); experiment: EMSA; details: protein: recombinant; label: 5' 32P
[4] = molecular target: T2, CsHMG (Citrus sinensis, UniProt G9I829 1-165); experiment: competition; 1-30x cold poly(U); details: protein: recombinant; tags: 6xHis; label: 5' 32P
[5] = molecular target: PthA4 RD (Xanthomonas citri, UniProt A0AAI8ETU3 289-885); experiment: EMSA; 5 mM Mg2+; […], pH 7.5 ([…], pH 7.5, 20 min; details: protein: recombinant; label: 5' 32P
[6] = molecular target: PthA4 (Xanthomonas citri, UniProt A0AAI8ETU3 1-1163); experiment: EMSA; 5 mM Mg2+; […], pH 7.5 ([…], pH 7.5, 20 min; details: protein: recombinant; tags: 6xHis; label: 5' 32P
[7] = molecular target: PthA4;CsHMG (Xanthomonas citri;Citrus sinensis, UniProt A0AAI8ETU3;G9I829 1-1163;1-165, |); experiment: EMSA; ternary complex suggested by higher MW bands; […], pH 7.5 ([…], pH 7.5, 20 min; details: protein: recombinant;recombinant; tags: 6xHis;6xHis; label: 5' 32P
[8] = molecular target: T2, CsHMG; experiment: EMSA; 0.5 and 1.0 ug protein; details: protein: recombinant; tags: 6xHis; label: 5' 32P (direct EMSA)
[9] = molecular target: T1, CsHMGΔNΔC; experiment: competition; 1-30x vs poly(U) probe; details: protein: recombinant; label: 5' 32P (direct EMSA)

T1 sequence (G9I829 entry or part of it mutant): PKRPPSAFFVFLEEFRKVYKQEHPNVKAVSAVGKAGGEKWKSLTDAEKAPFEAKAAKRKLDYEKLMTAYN
CsHMGΔN, sequence (G9I829 entry or part of it mutant): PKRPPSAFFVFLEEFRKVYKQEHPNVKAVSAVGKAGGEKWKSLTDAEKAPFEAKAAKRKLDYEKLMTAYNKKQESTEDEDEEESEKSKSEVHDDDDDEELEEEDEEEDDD
CsHMGΔC, sequence (G9I829 entry or part of it mutant): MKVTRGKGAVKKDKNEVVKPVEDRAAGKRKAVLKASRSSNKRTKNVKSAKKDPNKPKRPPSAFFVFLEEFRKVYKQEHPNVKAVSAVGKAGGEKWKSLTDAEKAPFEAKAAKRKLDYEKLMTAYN

| Binder | binding result [1] | binding result [2] | binding result [3] | binding result [4] | binding result [5] | binding result [6] | binding result [7] | binding result [8] | binding result [9] |
| --- | --- | --- | --- | --- | --- | --- | --- | --- | --- |
| UUUUUUUUUUUUUUUUUUUU (ssRNA) [poly(U) U-20] | binds | binds | binds | binds | binds | binds | binds |  |  |
| UUAUUAUUUAUUUAUUUAUU (ssRNA) [AU-rich RNA] |  |  |  |  |  |  |  | no binding | no binding |

— article PMC3285215, “The TAL Effector PthA4 Interacts with Nuclear Factors Involved in RNA-Dependent Processes Including a HMG Protein That Selectively Binds Poly(U) RNA”
